Results as given in PMC5710141 (Genes & Development, 2017).

Legend:
Mif2c (Mif2 core) dimer = Mif2c (Mif2 core) dimer (Saccharomyces cerevisiae (budding yeast), UniProt P35201 256-530); test: analytical ultracentrifugation
Mif2 DHBD = Mif2 DHBD (Saccharomyces cerevisiae (budding yeast), UniProt P35201 256-365); test: analytical ultracentrifugation
AUC = target: the molecule itself; test: AUC

B1: 40-bp AT-rich dsDNA (dsDNA)
DNA 1: AAAGTAAAAAATAAAAAGTAGTTTATTTTTAAAAAATAAA
DNA 2: TTTATTTTTTAAAAATAAACTACTTTTTATTTTTTACTTT
Q: Does B1 bind (Mif2c (Mif2 core) dimer)?
A: Result: binds

B2: 20-bp AT-rich dsDNA (dsDNA)
DNA 1: AAAGTAAAAAATAAAAAGTA
DNA 2: TACTTTTTATTTTTTACTTT
Q: Does B2 bind (Mif2 DHBD)?
A: Result: binds

B3: Mif2 core (Mif2c) dimer, Mif2 residues 256-530 (domain or fragment, budding yeast, UniProt P35201 256-530, looked up)
chain: NTNDNEDDYIRRQASDVVRTDSIIDRNGLRKSTRVKVAPLQYWRNEKIVYKRKSNKPVLDIDKIVTYDESEDEEEILAAQRRKKQKKKPTPTRPYNYVPTGRPRGRPKKDPNAKENLIPEDPNEDIIERIESGGIENGEWLKHGILEANVKISDTKEETKDEIIAFAPNLSQTEQVKDTKDENFALEIMFDKHKEYFASGILKLPAISGQKKLSNSFRTYITFHVIQGIVEVTVCKNKFLSVKGSTFQIPAFNEYAIANRGNDEAKMFFVQVTVS
Q: For B3, which “stoichiometry N” value (AUC) is on record?
A: Its value is 2.
